In US20200095340A1:

target: biotinylated human DLL3 protein expressed as a human IgG1 fusion protein (human) (UniProt Q9NYJ7); test: Octet BLI; biotinylated huDLL3-IgG1 fusion on streptavidin tips; single 50 nM; conditioned medium
Sequence (Q9NYJ7 other isoform, or with tags, fused parts or gaps): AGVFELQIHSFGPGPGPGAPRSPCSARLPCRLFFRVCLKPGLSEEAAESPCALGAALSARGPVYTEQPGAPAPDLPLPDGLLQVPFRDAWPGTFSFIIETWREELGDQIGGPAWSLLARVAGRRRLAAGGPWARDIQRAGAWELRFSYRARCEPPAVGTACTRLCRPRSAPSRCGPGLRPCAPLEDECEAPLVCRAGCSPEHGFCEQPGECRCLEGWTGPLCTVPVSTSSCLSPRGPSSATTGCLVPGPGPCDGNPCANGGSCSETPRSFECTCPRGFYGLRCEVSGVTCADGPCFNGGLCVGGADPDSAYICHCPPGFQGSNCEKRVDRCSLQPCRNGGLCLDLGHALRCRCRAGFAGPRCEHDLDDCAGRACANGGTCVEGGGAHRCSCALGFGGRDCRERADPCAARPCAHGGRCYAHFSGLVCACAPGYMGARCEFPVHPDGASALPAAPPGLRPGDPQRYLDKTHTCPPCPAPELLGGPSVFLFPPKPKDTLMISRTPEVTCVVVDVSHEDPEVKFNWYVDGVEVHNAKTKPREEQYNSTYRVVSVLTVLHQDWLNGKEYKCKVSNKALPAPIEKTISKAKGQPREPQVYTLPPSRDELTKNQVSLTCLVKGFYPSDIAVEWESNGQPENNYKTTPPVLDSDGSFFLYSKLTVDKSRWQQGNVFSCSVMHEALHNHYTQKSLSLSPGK

Kd [nM]	Binder
5.4	anti-DLL3 trispecific protein 1B09 (protein, part only; not given: anti-CD3 and anti-albumin domains, part only) chain, part: EVQLVESGGGLVQPGGSLTLSCVASGSTSSINAMAWYRRAPGKQRELVAGISSDGSKVYVDSVKGRFTISRDNAKNSVYLQMNSLRAEDTAVYYCYYFRTVSGSSMRYWGQGTLVTVSSGGGGSGGGSGGGGSGGGSHHHHHH
6.2	anti-DLL3 trispecific protein 1C02 (protein, part only; not given: anti-CD3 fragment and anti-albumin sdAb, part only) chain, part: EVQLVESGGGLVQPGGSLTLSCVASGSTSSINAMAWYRRAPGKQRELVAGISSDGSKVYSDSVKGRFTISRDNAKNSVYLQMNSLRAEDTAVYYCYYFRTVSGSSMRSWGQGTLVTVSSGGGGSGGGSGGGGSGGGSHHHHHH
5.6	anti-DLL3 trispecific protein 1A06 (protein, part only; not given: anti-CD3 fragment and anti-albumin sdAb, part only) chain, part: EVQLVESGGGLVQPGGSLTLSCVASGSTSSINAMGWYRRAPGKQRELAAGISSDGSSVYADSVKGRFTISRDNAKNSVYLQMNSLRAEDTAVYYCYYFRTVSGSSKRYWGQGTLVTVSSGGGGSGGGSGGGGSGGGSHHHHHH
6.2	anti-DLL3 trispecific protein 1H011 (protein, part only; not given: anti-CD3 and anti-albumin domains, part only) chain, part: EVQLVESGGGLVQPGGSLTLSCVASGSTSSINAIGWYRRAPGKQRELVAGISSDGSKVYNDSVKGRFTISRDNAKNSVYLQMNSLRAEDTAVYYCYYFRTQSGSSMRYWGQGTLVTVSSGGGGSGGGSGGGGSGGGSHHHHHH
5.9	anti-DLL3 trispecific protein 2F03 (protein, part only; not given: anti-CD3 fragment and anti-albumin sdAb, part only) chain, part: EVQLVESGGGLVQPGGSLTLSCVASGSTSSINAMAWYRRAPGKQRELAAGISSDNSKVYADSVKGRFTISRDNAKNSVYLQMNSLRAEDTAVYYCYYFRTVGGSSMRYWGQGTLVTVSSGGGGSGGGSGGGGSGGGSHHHHHH
6	anti-DLL3 trispecific protein 2E02 (protein, part only; not given: anti-CD3 fragment and anti-albumin sdAb, part only) chain, part: EVQLVESGGGLVQPGGSLTLSCVASGSTSAINAMGWYRRAPGKQRELVAGISSDGSKVYVDSVKGRFTISRDNAKNSVYLQMNSLRAEDTAVYYCYYFRTVSGSSQRYWGQGTLVTVSSGGGGSGGGSGGGGSGGGSHHHHHH
6.1	anti-DLL3 trispecific protein 2C08 (protein, part only; not given: anti-CD3 and anti-albumin domains, part only) chain, part: EVQLVESGGGLVQPGGSLTLSCVASGSTSRINAMGWYRRAPGKQRELVAGISSDGSKVYQDSVKGRFTISRDNAKNSVYLQMNSLRAEDTAVYYCYYFRRVSGSSMRYWGQGTLVTVSSGGGGSGGGSGGGGSGGGSHHHHHH
5.4	anti-DLL3 trispecific protein 2D011 (protein, part only; not given: anti-CD3 fragment and anti-albumin sdAb, part only) chain, part: EVQLVESGGGLVQPGGSLTLSCVASGTTSSINAMGWYRRAPGKQRELVAGISSDGSKVYADSVKGRFTISRDNAKNSVYLQMNSLRAEDTAVYYCYYFRTVWGSSMRYWGQGTLVTVSSGGGGSGGGSGGGGSGGGSHHHHHH
5.8	anti-DLL3 trispecific protein 1D03 (protein, part only; not given: CD3 binder and albumin binder, part only) chain, part: EVQLVESGGGLVQPGGSLTLSCVASGSTSSINAIGWYRRAPGKQRELVAGISSDGSKVLADSVKGRFTISRDNAKNSVYLQMNSLRAEDTAVYYCYYFRIVSGSSMGYWGQGTLVTVSSGGGGSGGGSGGGGSGGGSHHHHHH
6.2	anti-DLL3 trispecific protein 2C07 (protein, part only; not given: anti-CD3 and anti-albumin domains, part only) chain, part: EVQLVESGGGLVQPGGSLTLSCVASGSTSSINAMAWYRRAPGKQRELVAGISSDGSKVYADSVKGRFTISRDNAKNSVYLQMNSLRAEDTAVYYCYYFRSVSGSSMRYWGQGTLVTVSSGGGGSGGGSGGGGSGGGSHHHHHH
5.8	anti-DLL3 trispecific protein 1F012 (protein, part only; not given: anti-CD3 fragment and anti-albumin sdAb, part only) chain, part: EVQLVESGGGLVQPGGSLTLSCVASGLTSSINAMGWYRRAPGKQRELVAGISSDGSKVYQDSVKGRFTISRDNAKNSVYLQMNSLRAEDTAVYYCYYFRTNSGSSMRYWGQGTLVTVSSGGGGSGGGSGGGGSGGGSHHHHHH
5.6	anti-DLL3 trispecific protein 2G03 (protein, part only; not given: CD3 binder and albumin binder, part only) chain, part: EVQLVESGGGLVQPGGSLTLSCVASGSTSSINAMGWYRRAPGKQRELVAGISSDGSLVYADSVKGRFTISRDNAKNSVYLQMNSLRAEDTAVYYCYYFRTVSGSSMRAWGQGTLVTVSSGGGGSGGGSGGGGSGGGSHHHHHH
5.8	anti-DLL3 trispecific protein 1F05 (protein, part only; not given: CD3 fragment and albumin sdAb, part only) chain, part: EVQLVESGGGLVQPGGSLTLSCVASGSTRSINAMGWYRRAPGKQRELVAGISSDGSKVYADSVKGRFTISRDNAKNSVYLQMNSLRAEDTAVYYCYYFHTVSGSSMRYWGQGTLVTVSSGGGGSGGGSGGGGSGGGSHHHHHH
5.7	anti-DLL3 trispecific protein 1B011 (protein, part only; not given: CD3 binder and albumin binder, part only) chain, part: EVQLVESGGGLVQPGGSLTLSCVASGSTSRINAMGWYRRAPGKQRELVAGISSDGSKVYADSVKGRFTISRDNAKNSVYLQMNSLRAEDTAVYYCYYFRTVYGSSMRYWGQGTLVTVSSGGGGSGGGSGGGGSGGGSHHHHHH
5.8	anti-DLL3 trispecific protein 1D01 (protein, part only; not given: CD3 binder and albumin binder, part only) chain, part: EVQLVESGGGLVQPGGSLTLSCVASGSTSDINAMGWYRRAPGKQRELVAGISSDKSKVYADSVKGRFTISRDNAKNSVYLQMNSLRAEDTAVYYCYYFRTVRGSSMRYWGQGTLVTVSSGGGGSGGGSGGGGSGGGSHHHHHH
5.6	anti-DLL3 trispecific protein 2A04 (protein, part only; not given: anti-CD3 fragment and anti-albumin domain, part only) chain, part: EVQLVESGGGLVQPGGSLTLSCVASGSTSSINAMAWYRRAPGKQRELVAGISSDGSKVYTDSVKGRFTISRDNAKNSVYLQMNSLRAEDTAVYYCYYFRTTSGSSMRYWGQGTLVTVSSGGGGSGGGSGGGGSGGGSHHHHHH

Kd [nM]	Binder
5.7	anti-DLL3 trispecific protein 1H01 (protein, part only; not given: CD3 binder and albumin binder, part only) chain, part: EVQLVESGGGLVQPGGSLTLSCVASGSTSSINAMAWYRRAPGKQRELAAGISSDNSKVYADSVKGRFTISRDNAKNSVYLQMNSLRAEDTAVYYCYYFRTRSGSSMRYWGQGTLVTVSSGGGGSGGGSGGGGSGGGSHHHHHH
6.1	anti-DLL3 trispecific protein 1C03 (protein, part only; not given: anti-CD3 and anti-albumin domains, part only) chain, part: EVQLVESGGGLVQPGGSLTLSCVASGSTSSINAMAWYRRAPGKQRELVAGISSDNSKVYADSVKGRFTISRDNAKNSVYLQMNSLRAEDTAVYYCYYFRTVGGSSMRYWGQGTLVTVSSGGGGSGGGSGGGGSGGGSHHHHHH
6.1	anti-DLL3 trispecific protein 2H07 (protein, part only; not given: anti-CD3 fragment and anti-albumin sdAb, part only) chain, part: EVQLVESGGGLVQPGGSLTLSCVASGSTSSINAVGWYRRAPGKQRELVAGISSDGSTVYADSVKGRFTISRDNAKNSVYLQMNSLRAEDTAVYYCYYFRTVSGHSMRYWGQGTLVTVSSGGGGSGGGSGGGGSGGGSHHHHHH
6	anti-DLL3 trispecific protein 2D07 (protein, part only; not given: anti-CD3 fragment and anti-albumin sdAb, part only) chain, part: EVQLVESGGGLVQPGGSLTLSCVASGSTSSINAVGWYRRAPGKQRELVAGISSDGTKVYRDSVKGRFTISRDNAKNSVYLQMNSLRAEDTAVYYCYYFRTVQGSSMRYWGQGTLVTVSSGGGGSGGGSGGGGSGGGSHHHHHH
5.7	anti-DLL3 trispecific protein 2B07 (protein, part only; not given: CD3 fragment and albumin sdAb, part only) chain, part: EVQLVESGGGLVQPGGSLTLSCVASGSTSSINAFGWYRRAPGKQRELVAGISSDGSKVYADSVKGRFTISRDNAKNSVYLQMNSLRAEDTAVYYCYYFRTVRGSSMRYWGQGTLVTVSSGGGGSGGGSGGGGSGGGSHHHHHH
5.7	anti-DLL3 trispecific protein 1E010 (protein, part only; not given: anti-CD3 fragment and anti-albumin sdAb, part only) chain, part: EVQLVESGGGLVQPGGSLTLSCVASGSVSSINAMGWYRRAPGKQRELVAGISSDGSKVYIDSVKGRFTISRDNAKNSVYLQMNSLRAEDTAVYYCYYFRTVSGLSMRYWGQGTLVTVSSGGGGSGGGSGGGGSGGGSHHHHHH
5.4	anti-DLL3 trispecific protein 4B09 (protein, part only; not given: anti-CD3 fragment and anti-albumin sdAb, part only) chain, part: EVQLVESGGGLVQPGGSLTLSCAASGSSVSFLSMAWYRQAPGKKRELVAGISADGSTDYISSVKGRFTISRDNAKNSVYLQMNSLRAEDTAVYYCYAYSWTTRYTYWGQGTLVTVSSGGGGSGGGSGGGGSGGGSHHHHHH
5.9	anti-DLL3 trispecific protein 3C08 (protein, part only; not given: anti-CD3 fragment and anti-albumin sdAb, part only) chain, part: EVQLVESGGGLVQPGGSLTLSCAASGSSVKFLSMAWYRQAPGKKRELVAGISLDGSTDYIDSVKGRFTISRDNAKNSVYLQMNSLRAEDTAVYYCYAYRWTGRYTYWGQGTLVTVSSGGGGSGGGSGGGGSGGGSHHHHHH
5.9	anti-DLL3 trispecific protein 4D08 (protein, part only; not given: anti-CD3 and anti-albumin domains, part only) chain, part: EVQLVESGGGLVQPGGSLTLSCAASGSSVNFLSMAWYRQAPGKKRELVAGISADGSTHYIDSVKGRFTISRDNAKNSVYLQMNSLRAEDTAVYYCYAYRWLTRYTYWGQGTLVTVSSGGGGSGGGSGGGGSGGGSHHHHHH
5.8	anti-DLL3 trispecific protein 4D011 (protein, part only; not given: anti-CD3 fragment and anti-albumin sdAb, part only) chain, part: EVQLVESGGGLVQPGGSLTLSCAASGSSVRFLSMAWYRQAPGKKRELVAGISVDGSTDYIDSVKGRFTISRDNAKNSVYLQMNSLRAEDTAVYYCYAYRWRTRYTYWGQGTLVTVSSGGGGSGGGSGGGGSGGGSHHHHHH
6.1	anti-DLL3 trispecific protein 4H04 (protein, part only; not given: anti-CD3 fragment and anti-albumin sdAb, part only) chain, part: EVQLVESGGGLVQPGGSLTLSCAASGSSVKFLSMAWYRQAPGKKRELVAGVSADGSTDYIDSVKGRFTISRDNAKNSVYLQMNSLRAEDTAVYYCYAYEWTTRYTYWGQGTLVTVSSGGGGSGGGSGGGGSGGGSHHHHHH
5.6	anti-DLL3 trispecific protein 4A011 (protein, part only; not given: CD3 binder and albumin binder, part only) chain, part: EVQLVESGGGLVQPGGSLTLSCAASGSKVSFLSMAWYRQAPGKKRELVAGISADGSTTYIDSVKGRFTISRDNAKNSVYLQMNSLRAEDTAVYYCYAYRWKTRYTYWGQGTLVTVSSGGGGSGGGSGGGGSGGGSHHHHHH
6	anti-DLL3 trispecific protein 4C011 (protein, part only; not given: anti-CD3 and anti-albumin domains, part only) chain, part: EVQLVESGGGLVQPGGSLTLSCAASGSRVSFLSMAWYRQAPGKKRELVAGISADGSTVYIDSVKGRFTISRDNAKNSVYLQMNSLRAEDTAVYYCYAYRWTRRYTYWGQGTLVTVSSGGGGSGGGSGGGGSGGGSHHHHHH
5.8	anti-DLL3 trispecific protein 4F010 (protein, part only; not given: anti-CD3 and anti-albumin domains, part only) chain, part: EVQLVESGGGLVQPGGSLTLSCAASGSSVSFLSMAWYRQAPGKKRELVAGISIDGSTDYIKSVKGRFTISRDNAKNSVYLQMNSLRAEDTAVYYCYAYRWTTRYRYWGQGTLVTVSSGGGGSGGGSGGGGSGGGSHHHHHH
5.9	anti-DLL3 trispecific protein 3D07 (protein, part only; not given: anti-CD3 and anti-albumin domains, part only) chain, part: EVQLVESGGGLVQPGGSLTLSCAASGSSVRFLSMAWYRQAPGKKRELVAGISADGSTDYIDSVKGRFTISRDNAKNSVYLQMNSLRAEDTAVYYCYAYSWTTRYTYWGQGTLVTVSSGGGGSGGGSGGGGSGGGSHHHHHH
